15 molecules from patent US20180280525A1 (published 2018) can be followed below.

The target of assay [1] is T1, human MT1-MMP hemopexin domain (human, UniProt P50281 319-511).
T1 construct: range 319-511; Secreted from HEK293 cells as soluble N-terminally His6-tagged protein; also called MT1-MMP hemopexin-like repeats; MMP14
Description: FP competition, human MT1-MMP hemopexin domain; method not given.

Assay [2] addresses T1, human MT1-MMP hemopexin domain. In words: FP direct binding, fluoresceinated peptide titrated with hemopexin domain.
For assay [3] the target is unchanged. In words: FP competition, Human/cyno MT1-MMP hemopexin domain.
For assay [4], the target named is T2, dog MT1-MMP hemopexin domain (dog, UniProt A0A8I3MND9 318-511).
T2 construct: domain: hemopexin domain
In words: FP competition, dog MT1-MMP hemopexin domain. The procedure:
Subsequently, the non-fluorescent competitor bicyclic peptide (usually just the bicycle core sequence) is titrated, such that it displaces the fluorescent tracer from the target protein. The displacement of the tracer is measured and associated with a drop in fluorescence polarisation. The drop in fluorescence polarisation is proportional to the fraction of target protein bound with the non-fluorescent titrant, and thus is a measure of the affinity of titrant to target protein.

In assay [5] the target is T1, human MT1-MMP hemopexin domain. In words: FP competition, human MT1-MMP hemopexin domain (n = 3; footnote e).
Assay [6] has the same target. Description: FP competition, human MT1-MMP hemopexin domain; tracer not given.
Assay [7] has the same target. In words: FP competition, tracer A-(17-69-07)-A-Sar6-K(Fluorescein).
The target is the same in assay [8]. Description: FP competition, human MT1-MMP hemopexin domain; tracer not given. This is another data set of the same source.
Assay [9] shares this target. Description: FP competition, tracer A-(17-69-07)-A-Sar6-K(Fluorescein). This is another data set of the same source.
For assay [10] the target is unchanged. Description: FP competition, human MT1-MMP hemopexin domain; tracer not given. The source holds these as a separate data set.
The target is the same in assay [11]. In words: FP competition, tracer A-(17-69-12)-A-Sar6-K(Fluorescein).
Assay [12] shares this target. In words: FP competition, human MT1-MMP hemopexin domain; tracer not given. The source holds these as a separate data set.

Numbered stars: 1 amine (or outer) side, 2 acyl side, 3 side chain; on linkers, the order of the positions; unused ones are H or OH. Bridge positions count the residues as written; N and C are the ends. Square brackets hold non-standard residues; d marks the D form. Ends that are not written are not given here. * marks the point of attachment. DOTA = O=C(O)CN1CCN(CC(=O)O)CCN(CC(=O)*)CCN(CC(=O)O)CC1; fluorescein = fluorescein label on the Lys side chain; Phe(4-Br) = N[C@@H](Cc1ccc(Br)cc1)C(=O)O; 1Nal = N[C@@H](Cc1cccc2ccccc12)C(=O)O; TBMB = c1c(C[*:1])cc(C[*:3])cc1C[*:2]; Tle = CC(C)(C)[C@H](N)C(=O)O; Sar = CNCC(=O)O

B1: 17-69-07-N248 (peptide)
chain: {DOTA}-AC[dA]NE[1Nal][dA]CEDF[Phe(4-Br)]D[Tle]C
modifications: linker 2-8-15 via TBMB; not fully specified (C-terminus); also: 177Lu chelated in DOTA for biodistribution study
As a reminder, the Kd is a measure of binding affinity in units of concentration. For the molecule B1, the dissociation constant Kd in assay [1] was determined as 0.5 nM.

B2: 17-69-07-N147 (peptide)
peptide: {DOTA}-ACYNEFGCEDFYDIC
modifications: linker 2-8-15 via TBMB; not fully specified (C-terminus); also: DOTA loaded with cold 175Lu
notes: also called DOTA[Lu]-A-(17-69-07)
Regarding B2, binding in assay [1] was characterised by a dissociation constant (Kd) of 0.95 nM.

B3: 17-69-12-N005 (peptide)
peptide: ACMNQFGCEDFYDICA[Sar][Sar][Sar][Sar][Sar][Sar]K(fluorescein)
modifications: linker 2-8-15 via TBMB; not fully specified (C-terminus)
notes: also called A-(17-69-12)-A-Sar6-K(Fl); A-(17-69-12)-A-Sar6-K(Fluorescein)
In assay [2], B3 had a dissociation constant Kd of 3.1 nM.

B4: 17-69-07-N040 (peptide)
peptide: ACYNEFGCEDFYDICA[Sar][Sar][Sar][Sar][Sar][Sar]K(fluorescein)
modifications: linker 2-8-15 via TBMB; not fully specified (C-terminus)
notes: also called A-(17-69-07)-A-Sar6-K(Fl); A-(17-69-07)-A-Sar6-K(Fluorescein)
In turn, B4 gave a Kd in [2] of 0.52 nM.

B5: 17-69-07-N219 (peptide)
peptide: GXACYNEFGCEDFYDIC
modifications: not fully specified; Sar x10 in the spacer; 3 Cys cyclised with TBMB
notes: also called G-Sar10-A-(17-69-07) (non-stabilised with spacer)
For B5, the Kd came out at 0.82 nM in assay [3], 0.9 nM in [4], 0.82 nM in assay [5] and 0.82 nM in assay [6].

B6: 17-69-N004 (peptide)
peptide: ACKNRGFGCEDFYDICA[Sar][Sar][Sar][Sar][Sar][Sar]K(fluorescein)
modifications: linker 2-9-16 via TBMB; not fully specified (C-terminus)
notes: also called A-(17-69)-A-Sar6-K(Fl); A-(17-69)-A-Sar6-K(Fluorescein)
B6 gave a dissociation constant Kd in [2] of 692 nM.

B7: 17-69-02-N001 (peptide)
peptide: ACFGEFGCEDFYDICA
modifications: linker 2-8-15 via TBMB; not fully specified (C-terminus)
notes: also called A-(17-69-02)-A
Regarding B7, binding in [7] was characterised by a dissociation constant (Kd) of 191 nM.

B8: 17-69-07-N144 (peptide)
peptide: {DOTA}-ACYNEFGCEDFYDIC
modifications: linker 2-8-15 via TBMB; not fully specified (C-terminus); also: DOTA loaded with 177Lu
notes: Loaded with 177Lu for the biodistribution study; also called DOTA-A-(17-69-07)
For B8, the Kd in assay [1] amounted to 0.5 nM.

B9: 17-69-07-N057 (peptide)
peptide: Ac-CYNEYGCEDFYDIC
modifications: linker 1-7-14 via TBMB; not fully specified (C-terminus)
notes: also called Ac-(17-69-07) Tyr4
In assay [8], B9 showed a Kd of 1.78 nM.

B10: 17-69-44-N002 (peptide)
peptide: Ac-CYNEWGCEDFYDIC
modifications: linker 1-7-14 via TBMB; not fully specified (C-terminus)
notes: also called Ac-(17-69-07) Trp4
B10 yielded a Kd in [8] of 0.75 nM.

B11: 17-69-12-N003 (peptide)
peptide: ACMNQFGCEDFYDICA
modifications: linker 2-8-15 via TBMB; not fully specified (C-terminus)
notes: also called A-(17-69-12)-A
In assay [9], B11 showed a Kd of 3.7 nM.

B12: 17-69-07-N120 (peptide)
chain: Ac-CYNEF[dR]CEDFYDIC
modifications: linker 1-7-14 via TBMB; not fully specified (C-terminus)
In turn, B12 had a dissociation constant (Kd) in [10] of 4.24 nM.

B13: 17-69-03-N001 (peptide)
peptide: ACVNEFGCEDFYDICA
modifications: linker 2-8-15 via TBMB; not fully specified (C-terminus)
notes: also called A-(17-69-03)-A
In turn, B13 showed a Kd in assay [7] of 16.7 nM.

B14: 17-69-07-N001 (peptide)
peptide: ACYNEFGCEDFYDICA
modifications: linker 2-8-15 via TBMB; not fully specified (C-terminus)
notes: also called A-(17-69-07)-A
Turning to B14, the dissociation constant Kd in [11] came to 1.65 nM.

B15: 17-69-07-N252 (peptide)
chain: Ac-C[dA]NE[1Nal][dA]CEDF[Phe(4-Br)]D[Tle]C
modifications: linker 1-7-14 via TBMB; not fully specified (C-terminus); printed as Ac-(17-69-07) D-Ala1 1Nal4 D-Ala5 4BrPhe9 tBuGly11
Regarding B15, the equilibrium dissociation constant (Kd) in assay [12] stood at 0.8 nM.
